T1: human IL-1α (human, UniProt P01583 113-271)
T1 construct: also called IL-1alpha; hIL-1α
T1 sequence (looked up): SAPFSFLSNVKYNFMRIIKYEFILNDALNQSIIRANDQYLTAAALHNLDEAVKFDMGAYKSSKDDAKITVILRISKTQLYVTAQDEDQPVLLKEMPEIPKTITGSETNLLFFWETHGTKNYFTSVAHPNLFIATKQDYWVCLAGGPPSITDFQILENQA


biological target: T1, human IL-1α; assay: Table 62 IC50; RBA presumed

Row | IC50 [nM] | Binder
1 | 100 | ABT1-144 (other, VK dAb) VL: DIQMTQSPSSLSASVGDRVTITCRASQRIKKYLAWYQQKPGKAPRLLIYRSSQLQSGVPSRFSGSGSGTDFTLTISSLQPEDFATYYCQQSFKRPVTFGQGTKVEIKR
2 | > 500 | ABT1-146 (other, VK dAb) VL: DIQMTQSPSSLSASVGDRVTITCRASQNIKTFLHWYQQKPGKAPKLLIYRVSHLQSGVPSRFSGSGSGTDFTLTISSLQPEDFATYYCQQEYRIPLTFGQGTKVEIKR
3 | > 500 | ABT1-145 (other, VK dAb) VL: DIQMTQSPSSLSASVGDRVTITCRASQDIDDGLAWYQQKPGKAPKLLIYRTSRLQSGVPSRFSGSGSGTDFTLTISSLQPEDFATYYCQPTWLPPCTFGQGTKVEIKR
4 | 20 | ABT1-141-16 (other, VK dAb) VL: DIQMTQSPSSLSASVGDRVAITCRASQWIQKQLAWYQQKPGKAPKLLIYSSSYLQSGVPSRFSGSGSGTDFTLTISSLQPEDFATYYCQHHLRVPFTFGQGTKVEIKR
5 | 60 | ABT1-141-21 (other, VK dAb) VL: DIQMTQSPSSLSASVGDRVTITCRASQWIQKQLAWYQQKPGKAPKLLIYSSSYLQSGVPSRFSGSGSGTDFTLTISSLQPEDFATYYCQQQMSSPRTFGQGTKVEIKR
6 | 30 | ABT1-141-22 (other, VK dAb) VL: DIQMTQSPSSLSASVGDRVTITCRASQWIQKQLAWYQQKPGKAPKLLIYSSSYLQSGVPSRFSGSGSGTDFTLTISSLQPEDFATYYCQQQMAPPRTFGQGTKVEIKR
7 | 30 | ABT1-141-17 (other, VK dAb) VL: DIQMTQSPSSLSASVGDRVTITCRASQWIQKQLAWYQLKPGKAPKLLIYSSSYLQSGVPSRFSGSGSGTDFTLTISSLQPEDFATYYCQQHLRVPFTFGQGTKVEIKR
8 | 80 | ABT1-141-23 (other, VK dAb) VL: DIQMTQSPSSLSASVGDRVTITCRASQWIQKQLAWYQQKPGKAPKLLIYSSSYLQSGVPSRFSGSGSGTDFTLTISSLQPEDFATYYCQQQMQPPRTFGQGTKVEIKR
9 | 50 | ABT1-141-19 (other, VK dAb) VL: DIQMTQSPSSLSASVGDRVTITCRASQWIQKQLAWYQQKPGKAPKLLIYSSSWLQSGVRSRFSGSGSGTDFTLTISSLQPEDFATYYCQQHLRVPFTFGQGTKVEIKR
10 | 80 | ABT1-141-18 (other, VK dAb) VL: DIQMTQSPSSLSASVGDRVTITCRASQWIQKQLAWYQQKPGKVPKLLIYSSSYLQSGVPSRFSGSGSGTDFTLTISSLQPEDFATYYCQQHLRVPFTFGQGTKVEIKR
11 | 3 | ABT1-141-46 (other, VK dAb) VL: DIQMTQSPSSLSASVGDRVTITCRASQWIQKQLAWYQQKPGKAPKLLIYSSSHLQSGVPSRFSGSGSGTDFTLTISSLQPEDFATYYCQQHLRVPMTFGQGTKVVIKR
12 | > 500 | ABT1-143 (other, VK dAb) VL: DIQMTQSPSSLSASVGDRVTITCRASQRIDRHLSWYQQKPGKAPKLLIYKTSKLQSGVPSRFSGSGSGTDFTLTISSLQPEDFATYYCQQLHAKPFTFGQGTKVEIKR
13 | 200 | ABT1-142 (other, VK dAb) VL: DIQMTQSPSSLSASVGDRVTITCRASQSINDVLAWYQQKPGKAPRLLIYSASYLQSGVPSRFSGSGSGTDFTLTISSLQPEDFATYYCQQYISLPFTFGQGTKVEIKR
14 | 200 | ABT1-159 (other, VK dAb) VL: DIQMTQSPSSLSASVGDRVTITCRASSPIGMDLFWYQQKPGKAPRLLIDGVSGLQSGVPSRFSGSGSGTDFTLTISSLQPEDFATYYCSQHWPAPLTFGQGTKVEIKR

From patent US20090291081A1 (AbbVie / Abbott, published 2009)
